# Target: recombinant streptokinase from Streptococcus pyrogenes (so in the source) (Streptococcus pyrogenes (so in the source))
# Experiment: SPR (Biacore T200), SK on Ni2+-NTA chip, 1:1 Langmuir model
# Chain of native plasminogen (purchased from Merck, purified from human plasma) (P00747 20-810 limits assumed): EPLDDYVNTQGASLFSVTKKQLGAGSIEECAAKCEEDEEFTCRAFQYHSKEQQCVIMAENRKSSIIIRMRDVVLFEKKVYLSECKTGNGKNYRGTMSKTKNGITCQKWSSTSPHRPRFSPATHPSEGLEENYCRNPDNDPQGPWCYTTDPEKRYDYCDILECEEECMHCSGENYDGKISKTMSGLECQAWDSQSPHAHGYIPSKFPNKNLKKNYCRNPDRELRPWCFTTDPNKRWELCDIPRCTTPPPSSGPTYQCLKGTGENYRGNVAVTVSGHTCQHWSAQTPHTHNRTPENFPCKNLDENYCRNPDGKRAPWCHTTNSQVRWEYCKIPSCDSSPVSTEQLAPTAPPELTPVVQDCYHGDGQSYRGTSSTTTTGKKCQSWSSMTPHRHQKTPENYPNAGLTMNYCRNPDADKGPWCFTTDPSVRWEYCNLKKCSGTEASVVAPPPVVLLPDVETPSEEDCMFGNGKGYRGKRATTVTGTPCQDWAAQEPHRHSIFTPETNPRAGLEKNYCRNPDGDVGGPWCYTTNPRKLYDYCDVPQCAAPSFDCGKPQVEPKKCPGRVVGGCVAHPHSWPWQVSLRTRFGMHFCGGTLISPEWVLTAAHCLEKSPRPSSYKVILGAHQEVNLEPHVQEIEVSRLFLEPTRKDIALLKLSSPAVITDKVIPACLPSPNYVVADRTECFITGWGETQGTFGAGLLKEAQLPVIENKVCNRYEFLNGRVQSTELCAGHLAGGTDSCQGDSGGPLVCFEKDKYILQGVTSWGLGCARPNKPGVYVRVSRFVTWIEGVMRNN
# Chain of recombinant plasminogen (P00747 20-810 limits assumed): as above
# Chain of native plasmin (purchased from Haematologic Technologies) (P00747 97-580 limits assumed): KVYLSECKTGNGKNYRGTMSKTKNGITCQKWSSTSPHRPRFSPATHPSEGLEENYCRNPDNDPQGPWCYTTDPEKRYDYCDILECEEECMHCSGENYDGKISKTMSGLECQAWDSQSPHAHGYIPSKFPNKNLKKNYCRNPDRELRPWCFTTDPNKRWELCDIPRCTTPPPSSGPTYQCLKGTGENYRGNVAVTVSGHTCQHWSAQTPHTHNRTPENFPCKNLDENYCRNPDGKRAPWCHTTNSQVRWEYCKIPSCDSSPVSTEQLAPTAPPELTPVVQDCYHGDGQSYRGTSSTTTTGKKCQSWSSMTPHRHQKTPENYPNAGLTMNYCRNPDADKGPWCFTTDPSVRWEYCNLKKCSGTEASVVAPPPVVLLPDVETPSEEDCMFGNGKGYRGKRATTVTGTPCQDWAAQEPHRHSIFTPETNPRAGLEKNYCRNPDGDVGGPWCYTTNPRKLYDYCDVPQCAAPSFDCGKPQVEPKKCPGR
# Chain of native plasmin (purchased from Haematologic Technologies) (P00747 581-810 limits assumed): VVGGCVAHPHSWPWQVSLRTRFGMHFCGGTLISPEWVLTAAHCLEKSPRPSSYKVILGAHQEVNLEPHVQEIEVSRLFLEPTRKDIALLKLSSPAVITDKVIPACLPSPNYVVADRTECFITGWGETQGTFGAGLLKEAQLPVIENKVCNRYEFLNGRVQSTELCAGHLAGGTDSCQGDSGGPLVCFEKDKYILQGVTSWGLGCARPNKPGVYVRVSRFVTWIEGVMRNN
Substance,Kd,koff,kon
"native plasminogen (purchased from Merck, purified from human plasma) (from UniProt P00747 20-810)",1.4 nM,0.00032 s⁻¹,230000 M⁻¹ s⁻¹
recombinant plasminogen (from UniProt P00747 20-810),1.4 nM,0.00036 s⁻¹,270000 M⁻¹ s⁻¹
native plasmin (purchased from Haematologic Technologies) (from UniProt P00747 97-580; P00747 581-810) (enzyme),0.33 nM,0.0023 s⁻¹,7.1e+06 M⁻¹ s⁻¹

# Source: US20220267751A1
